Data taken from article PMC11532494 (Nature Communications, 2024).
Where “and” joins values, the source holds several entries; their conditions need not be identical. Identical values can stand only once. No end group written: not given here. *: point of attachment. AMC = Cc1cc(=O)oc2cc(N*)ccc12

Molecular target: LpApaH (3) (Legionella pneumophila, UniProt A0A2S6EWV0)
Type: biochemical

QPKKdec (QPKK-{AMC}; not fully specified (residue 4); printed as QPKKdec; also: decanoyl-lysine (which Lys not given here); UniProt P04637 317-320, looked up, fragment)
[AMC]: 154.30 nM and 187.50 nM

QPKKmyr (QPKK-{AMC}; not fully specified (residue 4); printed as QPKKmyr; also: myristoyl-lysine (which Lys not given here); UniProt P04637 317-320, looked up, fragment)
[AMC]: 400.39 nM and 496.09 nM

QPKKoct (QPKK-{AMC}; not fully specified (residue 4); printed as QPKKoct; also: octanoyl-lysine (which Lys not given here); UniProt P04637 317-320, looked up, fragment)
[AMC]: 53.71 nM and 69.34 nM
